B1: CPEB3 Ribozyme (parent)
chain: UAACAGGGGGCCACAGCAGAAGCGUUCACGUCGCAGCCCCUGUCAGAUUCUGGUGAAUCUGCGAAUUCUGCUGUAUAUCUC

Variants of: B1
Assay: self-cleavage, relative activity (ratio to wild type); higher = more cleavage; in vitro, sequencing
In short: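 Libraries of CPEB3 self-cleaving ribozyme mutants came from rounds of error-prone PCR and carried barcodes, which DNA sequencing matched to variants. In vitro transcription used T7 RNA polymerase at 37°C for 5 hours, with a further 15 min in DNase I before EDTA stopped the reaction; the ribozymes cleaved during both steps. The RNA was reverse transcribed with template switching and sequenced on Illumina. Relative activity is the cleaved/total read fraction of a variant divided by that of the unmutated ribozyme, averaged over three batches with at least 5 reads.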

Point of comparison: U31C U58G, self-cleavage 0.39. Against it:
- G30U U31C — higher, 0.43
- U31C C68U — higher, 0.75
- U31C C68A — lower, 0.28
- U31A G36U — lower, 0.1
- C32A A56G — lower, 0.15
- U31A U72A — higher, 0.41
- U31A U72C — higher, 0.66
- U31A U80G — higher, 0.55
- U31A U80C — higher, 0.66
- U31A U80A — higher, 0.61
- U31G A57G — higher, 0.48
- U31A C39U — lower, 0.34
- U31C U58A — lower, 0.31
- U31C U58C — lower, 0.33
- U31G G36U — lower, 0.15
- U31C U72A — higher, 0.5
- U31C U72G — higher, 0.46
- U31C U72C — higher, 0.97
- U31A A35G — higher, 1.25
- U31A A35C — lower, 0.27
- U31A A35U — lower, 0.3
- U31C C71U — lower, 0.25
- U31C C71G — lower, 0.23
- U31C U48C — lower, 0.37
- U31C U48A — the same, 0.39
- G30U C38U — lower, 0.26
- U31C C37U — higher, 0.46
- U31C C37A — lower, 0.28
- U31A A56G — higher, 0.48
- U31A A56U — the same, 0.39
- U31C A47U — higher, 0.4
- U31C A47G — higher, 0.8
- U31C A47C — lower, 0.31
- U31G A75U — higher, 0.46
- U31G A75G — higher, 0.54
- U31A A45G — lower, 0.35
- U31A A45U — lower, 0.32
- G30U U66A — lower, 0.13
- U31A U76C — higher, 0.48
- U31C U76G — higher, 0.8
- U31C U76C — higher, 0.88
- U31C U76A — higher, 0.77
- U31C C32U — lower, 0.22
- U31C C32A — lower, 0.31
- G30U A56G — lower, 0.26
- G30U U60C — lower, 0.15
- U31A C40U — lower, 0.27
- U31C U60A — lower, 0.34
- U31C U60C — lower, 0.29
- U31C U60G — lower, 0.15
- U31C G63U — higher, 0.8
- U31C G63A — higher, 0.67
- U31G U58A — higher, 0.44
- U31G U58C — higher, 0.4
- U31A C34U — lower, 0.23
- U31A C34G — lower, 0.2
- U31G C40G — lower, 0.12
- C32A — lower, 0.29
- G30C U67A — lower, 0.18
- G30C U67G — lower, 0.09
- G30U U41A — lower, 0.16
- G30U U41G — lower, 0.13
- G30U U41C — lower, 0.27
- U31C C79A — higher, 0.94
- U31C C79U — higher, 1.1
- U31G G55A — lower, 0.21
- U31C G73A — higher, 1.26
- U31A C50U — higher, 0.41
- U31C G42U — lower, 0.13
- U31C G42A — lower, 0.35
- U31C U66G — lower, 0.35
- U31C U66A — lower, 0.28
- U31C U66C — lower, 0.27
- U31G A45U — higher, 0.57
- U31G A45C — lower, 0.33
- U31G A45G — lower, 0.37
- G30U C62A — lower, 0.08
- G30U A77G — lower, 0.16
- U31C U69A — lower, 0.37
- U31C U69G — higher, 0.41
- U31C U69C — lower, 0.31
- U31C U49A — higher, 0.5
- U31C U49G — lower, 0.3
- U31C U49C — lower, 0.23
- U31A G46C — lower, 0.2
- U31A G46U — lower, 0.12
- U31A G33U — lower, 0.13
- U31A G33A — lower, 0.24
- U31A C62U — lower, 0.26
- U31A C62A — lower, 0.28
- U31A U66C — lower, 0.26
- U31C A45U — lower, 0.32
- U31C A45G — higher, 0.52
- U31C A45C — lower, 0.22
- U31G G53A — lower, 0.18
- U31C G55U — higher, 0.76
- U31C G55A — higher, 0.78
- G30U G70C — lower, 0.15
- U31A C59A — lower, 0.17
- U31A C59U — lower, 0.37
- U31A C59G — lower, 0.19
- G30C U54A — lower, 0.22
- U31G U43C — lower, 0.36
- U31G A35U — lower, 0.36
- U31G A35G — higher, 1.1
- U31A U43C — lower, 0.37
- U31A U43A — higher, 0.7
- U31A U43G — lower, 0.33
- G30U C40U — lower, 0.2
- G30C U51C — lower, 0.19
- U31C A56G — higher, 0.67
- U31C A56U — higher, 0.47
- U31A C71A — lower, 0.17
- U31A C71G — lower, 0.19
- U31A C71U — lower, 0.29
- U31G A65G — lower, 0.22
- U31C C39A — lower, 0.18
- U31C A57G — higher, 0.75
- U31C A57C — higher, 0.49
- U31C A57U — higher, 0.47
- U31C C44A — higher, 0.4
- U31C C44G — lower, 0.31
- U31C C44U — lower, 0.26
- U31G A56G — higher, 0.45
- U31A A47G — higher, 0.54
- U31A A47U — lower, 0.29
- U31G C34A — lower, 0.14
- U31G C34U — lower, 0.18
- U31A G63A — the same, 0.39
- G30U G42A — lower, 0.23
- U31A C81U — higher, 0.58
- U31A U58C — lower, 0.36
- C32A A45U — lower, 0.35
- C32A A45G — lower, 0.32
- G30C U60C — lower, 0.12
- G30C U60A — lower, 0.13
- U31C C62G — lower, 0.14
- U31C C62U — lower, 0.24
- U31C C62A — lower, 0.23
- G30U U78C — lower, 0.09
- U31C U51A — higher, 0.89
- U31C U51C — higher, 0.78
- U31C U51G — higher, 0.89
- U31G U54C — higher, 0.63
- U31G U54A — higher, 0.62
- U31G A64G — higher, 0.46
- U31C A65G — lower, 0.35
- U31C A65U — lower, 0.25
- U31C A77G — higher, 0.94
- U31C A77U — higher, 0.86
- U31C C50U — higher, 0.82
- U31C C50A — higher, 0.67
- U31C G33A — lower, 0.21
- U31A C68U — higher, 0.54
- G30U A57G — lower, 0.13
- G30U A57U — lower, 0.14
- U31G G52A — higher, 0.74
- U31C G53U — higher, 1.06
- U31C G53A — higher, 0.91
- U31G U67C — lower, 0.3
- U31G U67A — lower, 0.25
- U31G C44U — lower, 0.16
- G30U C79G — lower, 0.12
- U31A C44U — lower, 0.23
- U31A C38U — higher, 0.53
- G30C U72G — lower, 0.16
